In data set [1] the target is FBF-2 RBD (Caenorhabditis elegans) (UniProt Q09312). Nature of the data set: ITC. To be noted: cited from earlier work.
The next data set concerns C. elegans. The note with it: cited from earlier work; for sterile progeny: fbf-1 loss-of-function background, failure to initiate oogenesis, ref 41 (Wang, et al. 2016); for germline phenotype: animals expressing mutant FBF-2, unpublished, ref personal communication, Kimble lab. The source says:
Our previous structural and biochemical studies relied on FBF-2^164–575, a fragment with the RBD that lacks its intrinsically disordered C-terminal tail but retains its in vivo RNA-binding specificity (Fig. 1a)[17],[18],[36],[39],[40]. […] A worm strain that expresses truncated FBF-2 lacking the C-terminal 26 residues (607-632) was generated in an fbf-1 loss-of-function background. Approximately 11% of the mutant progeny were sterile due to failure to initiate oogenesis, indicating a germline defect. In contrast, worms expressing full-l ... || In the PUF hub, FBF-1 and FBF-2 play a more prominent role than PUF-3 and PUF-11[55]. FBF-1 and FBF-2 amino acid sequences are 91% identical and have largely overlapping functions. […] When the CT of FBF-1 is replaced with the FBF-2 CT, the chimeric protein produces a progenitor region that m ... || page 6: Reviewer #2 (Remarks to the Author): This manuscript uses structural and biochemical approaches to understand how partner proteins and intrinsically disordered regions (IDRs) impact RNA binding of FBF-2. The crystal structure of FBF-2 CT is novel and the proposed role of the CT in autoinhibition by intramolecular interaction with RBD is interesting. However, why this autoinhibition would be needed in vivo is less clear, especially in regard to the interaction with partner proteins. While the authors also mention this shortcoming, some attempt to address the biological consequences of t ...

The target of data set [2] is gld-1 FBEa RNA. Briefly: Surface plasmon resonance, RNA-binding kinetics. On the set-up: species or system C. elegans. Here is the method:
Kinetics of FBF-2 binding to the gld-1 FBEa RNA were measured using a 2-channel OpenSPR instrument (Nicoya). A 3′-biotin-labeled synthetic RNA was ordered from Horizon Discovery (gld-1 FBEa, 5′-AUCAUGUGCCAUACA-biotin-3′). The 3′-biotinylated RNA was immobilized on streptavidin-treated biotin sensor chips (Nicoya). All experiments were performed at 20 °C with a buffer of 20 mM HEPES, pH 7.4, 150 mM NaCl, and 2 mM DTT. SPR data were collected using OpenSPR (Nicoya, version 4.3). FBF-2 proteins were injected with a flow rate of 20 µl/min. Data were obtained at five different protein concentrations (25, 50, 100, 200, and 400 nM for wild type RBD + CT; 12.5, 25, 50, 100, and 200 nM for RBD + CT mutants and wild type RBD). Sensor chips were regenerated using 0.05% or 0.1% (v/v) SDS. For each experiment, five binding curves were simultaneously fit using a 1:1 binding model with the TraceDrawer software (Ridgeview Instruments, version 1.9.1). Mean values and standard deviation were calculated from two technical replicates. Despite our efforts, the fit of the binding curves for the association phase of FBF-2 RBD and FBF-2 RBD + CT mutants is poorer than the fit for FBF-2 RBD + CT WT. The appearance of the curves is consistent with the derived kon and koff values, and importantly, the curve fit for the dissociation phase is better.
(SPR reads the build-up and loss of mass on a sensor chip optically.)

The target in data set [3] is gld-1 FBEa RNA. Briefly: Electrophoretic mobility shift assay (EMSA), RNA binding. On the set-up: species or system C. elegans. How it is done: A 3′-Cy5-labeled synthetic RNA was ordered from IDT (gld-1 FBEa, 5′-[…]-3′). The FBF-2 proteins were serially diluted 2-fold from the highest concentration of 10 µM in the buffer used for gel filtration (20 mM HEPES pH 7.4, 150 mM NaCl, and 0.5 mM TCEP). 10 µl of the serially diluted protein samples were mixed with 10 µl RNA (10 nM) in a 2× buffer of 10 mM HEPES pH 7.4, 0.01% (v/v) Tween 20, 0.1 mg/ml BSA, 0.1 mg/ml yeast tRNA, and 2 mM DTT. For experiments in the presence of LST-1, LST-1 proteins at constant concentration were preincubated with FBF-2 at 4 °C for 2 h. The LST-1 concentrations were chosen based on their Kd’s for interaction with FBF-2. The final FBF-2 concentrations ranged from 5000 nM to 0.6 nM, and the LST-1 A or B concentrations were constant at 150 μM or 50 μM, respectively. The protein-RNA mixtures were incubated at 4 °C overnight. The samples were resolved on 10% TBE polyacrylamide gels run at constant voltage (100 V) with 1× TBE buffer at room temperature for 35 min. The gels were scanned and visualized with a Typhoon FLA 9500 imager using the Cy5 channel (excitation wavelength 635 nm). Band intensities were quantified with ImageQuant 5.2 (Cytiva). The data were fit with GraphPad Prism (version 9.2.0) using nonlinear regression with a one-site specific binding model. Mean Kd’s and standard error of the mean (SEM) from three or more technical replicates are reported (Supplementary Table 4). Full scan images for the replicates shown in the main figures and gel images for all replicates are included in a source data file.
On the technique in general: A gel shift assay detects complexes by their altered migration in electrophoresis.

The nature of data set [4]: Melting temperature of FBF-2 proteins. It counts as physicochemical. Here is the method: Mutants of FBF-2 RBD + CT: Y479A (5′-[…]), L610A (5′-[…]), and Loop6A (E592A, D594A, E597A, E599A, E604A, E605A; 5′-[…]) were generated by site-directed mutagenesis with the primers indicated. Plasmid sequences were verified by DNA sequencing (Azenta Life Sciences). Protein variants were expressed and purified like wild type proteins. Melting temperatures of wild type and mutant proteins were assessed by differential scanning […]. Reaction mixtures (total volume of 20 μl) contained ~0.3 mg/ml FBF-2 proteins and Sypro Orange dye (1:1000 dilution) (Sigma). Fluorescent intensity was collected from 25 °C to 95 °C (3 °C increment/min) with a real time PCR instrument (Applied Biosystems™ QuantStudio 7 Flex System) using excitation and emission wavelengths of 470 nm and 586 nm, respectively. Protein Thermal Shift^TM software (Applied Biosystems, version 1.4) was used to analyze protein melting curves and calculate melting temperatures (Tm).

[5] abbreviates: mean ± SD, two technical replicates, 20 °C, pH 7.4, 1:1 model.

Positions count from the first letter of the chain named. Names and notes keep the numbering of the source. Values joined by “and” are separate entries in the source; they are usually repeats but may differ in a detail not shown here. Identical values can stand only once. “Also recorded” adds a separate entry of the source. Like-named read-outs stand apart in the source and are kept apart here.

One may read the Kd as the constant that tells how readily two partners part at equilibrium. The term koff denotes a measure of how fast the partners let go of each other. As usually defined, the kon is the rate constant with which the complex forms. The low end stands for slower complex formation, the high end for faster complex formation.

Take LST-1 B LST-1 B (from UniProt P91820): the Kd in data set [1] is 50 nM.
Take LST-1 A LST-1 A (from UniProt P91820): in data set [1], the dissociation constant Kd was 2100 nM.

B1: full-length FBF-2: worms expressing full-length FBF-2 in an fbf-1 loss-of-function background (protein, UniProt Q09312 1-632, looked up)
chain: MDQSKMRRTNQFRKTSQKPPSTGIDSYPTPAQSPMAQHETPMWDFNSLNPYFSMLNMNDGINYARHQQNHIVTSRPPTPLTDLMSLRSFQSFPNVFMPVSRSRTSSFIQSDTDSSRLESDDFSQNVRCFSADIDRSKSYGSSKHYHLKYSRPALSRNSRSFTRSNNVLPTWSLDSNGEMRSRLSLSEVLDSGDLMKFAVDKTGCQFLEKAVKGSLTSYQKFQLFEQVIGRKDDFLKLSTNIFGNYLVQSVIGISLATNDDGYTKRQEKLKNFISSQMTDMCLDKFACRVIQSSLQNMDLSLACKLVQALPRDARLIAICVDQNANHVIQKVVAVIPLKNWEFIVDFVATPEHLRQICSDKYGCRVVQTIIEKLTADSMNVDLTSAAQNLRERALQRLMTSVTNRCQELATNEYANYIIQHIVSNDDLAVYRECIIEKCLMRNLLSLSQEKFASHVVEKAFLHAPLELLAEMMDEIFDGYIPHPDTGKDALDIMMFHQFGNYVVQCMLTICCDAVSGRRQTKEGGYDHAISFQDWLKKLHSRVTKERHRLSRFSSGKKMIETLANLRSTHPIYELQSSGHDSFKTDYFSTASEHDGPELEKNGIEEGSLMLEPRSNKSSVSVKFSSSGSHGDD
modifications: full-length
notes: worms expressing full-length FBF-2 in an fbf-1 loss-of-function background
As for B1, the “germline progenitor region length” value with C. elegans (expressed as sole FBF protein, vs FBF-1) is “shorter germline progenitor regions than FBF-1”. Further, the sterile progeny with C. elegans is reported as 0%.

B2: FBF-2 L610A: FBF-2 L610A; attempts to generate animals were unsuccessful (protein, UniProt Q09312 1-632, looked up, variant L610A)
Fem-3 mRNA-binding factor 2: B1 chain with L610A
Turning to B2, in the data set with C. elegans, the germline phenotype result is “dominant sterile”.

B3: FBF-2 Y479A: FBF-2 Y479A expressed in animals (Kimble lab, unpublished) (protein, UniProt Q09312 1-632, looked up, variant Y479A)
Fem-3 mRNA-binding factor 2: B1 chain with Y479A
For B3, in the data set on C. elegans, the germline phenotype result is reported as “no defects were detected in germline stem cell self-; also recorded: defect in the sperm-to-oocyte switch”.

B4: FBF-2 RBD + CT Loop6A: FBF-2 RBD + CT with E592A, D594A, E597A, E599A, E604A, E605A (protein)
chain: SNNVLPTWSLDSNGEMRSRLSLSEVLDSGDLMKFAVDKTGCQFLEKAVKGSLTSYQKFQLFEQVIGRKDDFLKLSTNIFGNYLVQSVIGISLATNDDGYTKRQEKLKNFISSQMTDMCLDKFACRVIQSSLQNMDLSLACKLVQALPRDARLIAICVDQNANHVIQKVVAVIPLKNWEFIVDFVATPEHLRQICSDKYGCRVVQTIIEKLTADSMNVDLTSAAQNLRERALQRLMTSVTNRCQELATNEYANYIIQHIVSNDDLAVYRECIIEKCLMRNLLSLSQEKFASHVVEKAFLHAPLELLAEMMDEIFDGYIPHPDTGKDALDIMMFHQFGNYVVQCMLTICCDAVSGRRQTKEGGYDHAISFQDWLKKLHSRVTKERHRLSRFSSGKKMIETLANLRSTHPIYELQSSGHDSFKTDYFSTASAHAGPALAKNGIAAGSLMLEPRSNKSSVSVKFSSSGSHGDD
modifications: left off: His6-SUMO, N-terminal, cleaved
notes: FBF-2 RBD + CT with E592A, D594A, E597A, E599A, E604A, E605A
As to B4, the Kd on gld-1 FBEa RNA [2] (derived from on/off rates, mean ± SD, two technical replicates) is 9.5 ± 4.2 nM; on gld-1 FBEa RNA [3] it was 142 nM and 175 nM and 180 nM; at gld-1 FBEa RNA [3] (no LST-1, mean ± SEM of independent technical replicates (n = 3-5), 4 °C overnight, pH 7.4, Cy5-RNA 5′-AUCAUGUGCCAUAC-3′) it was 101 nM; on gld-1 FBEa RNA [3] (no LST-1, replicate 1) it was 122 nM; at gld-1 FBEa RNA [3] (no LST-1, replicate 2), 100 nM; at gld-1 FBEa RNA [3] (no LST-1, replicate 3), 81 nM. In addition, the Kd on gld-1 FBEa RNA [3] (pH 7.4) stood at 166 ± 21 nM. Further, the koff in the data set on gld-1 FBEa RNA [2] (setting [5]) was 0.94 ± 0.05 x10^-3 s^-1; in the data set with gld-1 FBEa RNA [2] (replicate 1, read-out: koff), 0.00097 s⁻¹; in the data set with gld-1 FBEa RNA [2] (replicate 2, read-out: koff) it was 0.00091 s⁻¹. The kon in the data set with gld-1 FBEa RNA [2] (setting [5]) is 10.9 ± 4.3 x10^4 M^-1 s^-1; in the data set on gld-1 FBEa RNA [2] (replicate 1) it was 78000 M⁻¹ s⁻¹; in the data set on gld-1 FBEa RNA [2] (replicate 2), 139000 M⁻¹ s⁻¹. For the same molecule, the thermal stability result in data set [4] (in words, vs RBD alone or vs RBD + CT) is given as “only modestly decreased the thermal stability”. Also, the Tm in data set [4] (mean ± SD, three technical replicates, ~0.3 mg/ml protein, Sypro Orange, 25 to 95 °C, fluorescence) stood at 37.58 ± 0.05 °C; in data set [4] (replicate 1) it was 37.54 °C; in data set [4] (replicate 2), 37.68 °C; in data set [4] (replicate 3) it was 37.54 °C.

B5: truncated FBF-2: FBF-2 lacking the C-terminal 26 residues (607-632), expressed in worms (protein, UniProt Q09312 1-606, looked up, fragment)
chain: MDQSKMRRTNQFRKTSQKPPSTGIDSYPTPAQSPMAQHETPMWDFNSLNPYFSMLNMNDGINYARHQQNHIVTSRPPTPLTDLMSLRSFQSFPNVFMPVSRSRTSSFIQSDTDSSRLESDDFSQNVRCFSADIDRSKSYGSSKHYHLKYSRPALSRNSRSFTRSNNVLPTWSLDSNGEMRSRLSLSEVLDSGDLMKFAVDKTGCQFLEKAVKGSLTSYQKFQLFEQVIGRKDDFLKLSTNIFGNYLVQSVIGISLATNDDGYTKRQEKLKNFISSQMTDMCLDKFACRVIQSSLQNMDLSLACKLVQALPRDARLIAICVDQNANHVIQKVVAVIPLKNWEFIVDFVATPEHLRQICSDKYGCRVVQTIIEKLTADSMNVDLTSAAQNLRERALQRLMTSVTNRCQELATNEYANYIIQHIVSNDDLAVYRECIIEKCLMRNLLSLSQEKFASHVVEKAFLHAPLELLAEMMDEIFDGYIPHPDTGKDALDIMMFHQFGNYVVQCMLTICCDAVSGRRQTKEGGYDHAISFQDWLKKLHSRVTKERHRLSRFSSGKKMIETLANLRSTHPIYELQSSGHDSFKTDYFSTASEHDGPELEKNGIEEG
On to B5, for which the sterile progeny entry in the data set on C. elegans was “Approximately 11%”.
